Reference: paper PMC6047671

Biological target: human catalytic domain of MMP-14 (human)

human N-terminal domain of tissue inhibitor of metalloproteinase-2 (domain or fragment), sequence (P16035 27-220): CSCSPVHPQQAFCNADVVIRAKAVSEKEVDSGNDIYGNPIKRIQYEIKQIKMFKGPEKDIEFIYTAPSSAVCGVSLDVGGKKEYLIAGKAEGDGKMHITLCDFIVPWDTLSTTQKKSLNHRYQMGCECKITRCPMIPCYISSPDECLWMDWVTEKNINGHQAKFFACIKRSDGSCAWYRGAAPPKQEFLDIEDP

IC50 of inhibition of hydrolysis of the FRET peptide substrate M-2350 (1 nM human cdMMP-14, 1 μM substrate): 3 nM
Substance: human N-terminal domain of tissue inhibitor of metalloproteinase-2 (domain or fragment)
